One series addresses T1, tagged Cp3GT (Citrus x paradisi, UniProt C5MR71).
T1 construct: recombinant, Pichia pastoris X-33 (pPicZa), C-terminal thrombin site and c-myc/6x His tags kept; cobalt IMAC
T1 sequence (C5MR71 1-468): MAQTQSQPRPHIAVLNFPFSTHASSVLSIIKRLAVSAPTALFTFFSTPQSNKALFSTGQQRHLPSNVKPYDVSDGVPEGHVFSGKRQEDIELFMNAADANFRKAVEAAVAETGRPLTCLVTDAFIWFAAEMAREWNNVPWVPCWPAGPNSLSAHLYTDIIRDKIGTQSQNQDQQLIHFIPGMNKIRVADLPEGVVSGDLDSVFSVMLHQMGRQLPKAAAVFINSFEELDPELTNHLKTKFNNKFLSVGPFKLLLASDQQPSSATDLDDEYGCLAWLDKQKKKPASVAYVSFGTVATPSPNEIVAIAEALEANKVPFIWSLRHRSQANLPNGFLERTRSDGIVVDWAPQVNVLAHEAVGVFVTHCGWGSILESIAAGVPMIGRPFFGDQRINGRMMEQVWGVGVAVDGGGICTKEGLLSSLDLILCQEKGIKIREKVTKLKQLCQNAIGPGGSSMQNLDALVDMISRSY
As to the kind of experiment: glucosyltransferase assay, UDP inhibition. Format: biochemical.

Another series deals with T2, untagged Cp3GT (Citrus x paradisi, UniProt C5MR71).
T2 construct: recombinant, Pichia pastoris X-33 (pPicZa), C-terminal c-myc/6x His tags cut off with thrombin; cobalt IMAC; 56 kDa on gel
T2 sequence (C5MR71 1-468): T1 sequence (C5MR71 1-468)
As to the kind of experiment: glucosyltransferase assay, UDP inhibition. In kind it is biochemical.

Substrate in the series “purified protein”: O=c1c(O)c(-c2ccc(O)cc2)oc2cc(O)cc(O)c12
The series is described as follows: purified protein. Conditions: acceptor varied 0–667 µM, non-limiting UDP-glucose, 30 °C, pH 7.5, µM.

Substrate in series [1]: O=c1c(O)c(-c2ccc(O)c(O)c2)oc2cc(O)cc(O)c12
As to the kind of experiment: glucosyltransferase assay, Lineweaver-Burk. In kind it is biochemical, Citrus x paradisi. As to conditions: acceptor varied 0–667 µM, non-limiting UDP-glucose, 30 °C, pH 7.5, µM. The source says:
(§1) glucosyltransferase assay, Lineweaver-Burk on tagged Cp3GT

Substrate in series [2]: O=c1ccn([C@@H]2O[C@H](CO[P@@](=O)(O)O[P@@](=O)(O)O[C@H]3O[C@H](CO)[C@@H](O)[C@H](O)[C@H]3O)[C@@H](O)[C@H]2O)c(=O)[nH]1
As to the kind of experiment: glucosyltransferase assay, Lineweaver-Burk. Format: biochemical, Citrus x paradisi. Conditions: UDP-glucose varied 0–1333 µM, non-limiting acceptor (not named), 30 °C, pH 7.5, µM.
Excerpt: as §1

Substrate in series [3]: O=c1c(O)c(-c2ccc(O)c(O)c2)oc2cc(O)cc(O)c12
The series is described as follows: glucosyltransferase assay, Lineweaver-Burk. Format: biochemical, Citrus x paradisi. Conditions: acceptor varied 0–667 µM, non-limiting UDP-glucose, 30 °C, pH 7.5, µM. The source says: (§2) glucosyltransferase assay, Lineweaver-Burk on untagged Cp3GT
The source holds these as a separate data set.

Substrate in series [4]: O=c1ccn([C@@H]2O[C@H](CO[P@@](=O)(O)O[P@@](=O)(O)O[C@H]3O[C@H](CO)[C@@H](O)[C@H](O)[C@H]3O)[C@@H](O)[C@H]2O)c(=O)[nH]1
The series is described as follows: glucosyltransferase assay, Lineweaver-Burk. Format: biochemical, Citrus x paradisi. Conditions: UDP-glucose varied 0–1333 µM, non-limiting acceptor (not named), 30 °C, pH 7.5, µM.
Excerpt: as §2
The source holds these as a separate data set.

Turning to `O=c1ccn([C@@H]2O[C@H](COP(=O)(O)OP(=O)(O)O)[C@@H](O)[C@H]2O)c(=O)[nH]1` [UDP], the Ki at tagged Cp3GT worked out at 61.8 µM; at untagged Cp3GT, 73.1 µM.

B1: tagged Cp3GT (Citrus x paradisi) (protein)
chain: T1 sequence (C5MR71 1-468)
notes: recombinant, Pichia pastoris X-33 (pPicZa), C-terminal thrombin site and c-myc/6x His tags kept; cobalt IMAC
As for B1, the Km in the series “purified protein” came out at 44.1 ± 3.41 µM; in series [1], 51.9 ± 8.29 µM; in series [2] it was 49.7 ± 5.32 µM. In addition, the values for the kcat (in “purified protein”; in series [1]; in series [2]) were 1.28 s⁻¹, 1.84 ± 0.19 s⁻¹ and 0.637 ± 0.092 s⁻¹, respectively. For the same molecule, the kcat/Km in “purified protein” came out at 29000 M⁻¹ s⁻¹; in series [1], 35000 ± 1000 M⁻¹ s⁻¹; in series [2], 12000 ± 2000 M⁻¹ s⁻¹.

B2: untagged Cp3GT (Citrus x paradisi) (protein)
chain: T1 sequence (C5MR71 1-468)
notes: recombinant, Pichia pastoris X-33 (pPicZa), C-terminal c-myc/6x His tags cut off with thrombin; cobalt IMAC; 56 kDa on gel
Consider B2, for which, in “purified protein”, the Km worked out at 53.7 ± 10.6 µM, the kcat was 1.34 s⁻¹ and the kcat/Km turned out to be 25000 M⁻¹ s⁻¹. Besides, in series [3], the Km worked out at 42.4 ± 3.48 µM, the kcat stood at 1.54 ± 0.06 s⁻¹ and the kcat/Km came out at 36000 ± 1000 M⁻¹ s⁻¹. In series [4], the Km was found to be 55.0 ± 4.97 µM, the kcat came to 0.738 ± 0.125 s⁻¹ and the kcat/Km turned out to be 12000 ± 400 M⁻¹ s⁻¹.

The term Ki denotes the dissociation constant of the complex between target and ligand, obtained from inhibition or displacement. The term Km denotes the concentration of substrate that gives half-maximal velocity. A word on the kcat: it is the maximal rate divided by the concentration of active sites. As a reminder, the kcat/Km is the turnover number divided by the Michaelis constant.

The values above are taken from PMC7154896, “The Effect of Recombinant Tags on Citrus paradisi Flavonol-Specific 3-O Glucosyltransferase Activity” (Plants, 2020).
